In data set [1] the test system is Saccharomyces cerevisiae. Nature of the data set: protein stability index of tFT-peptide fusion (C-terminal peptide) (PSI (0-1 scale)); higher = more stable (slower turnover). As for the experimental part: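 MPS profiling in S. cerevisiae of the tFT-X12 degron library: putative degron peptides plus stable controls, 12 aa, fused to the C-terminus of a sfGFP-mCherry timer. Cells are FACS-sorted into 8 mCherry/sfGFP bins and deep-sequenced. PSI runs from 0 (unstable) to 1 (stable). Backgrounds are wild type, das1Δ and doa10Δ at 30 °C, and wild type, das1Δ, cdc34-1 and cdc53-1 at 37 °C; 2-3 technical replicates each.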

The subject of data set [2] is Saccharomyces cerevisiae. Described as above. Conditions: genetic background: wild type; temperature: 30 C.
Setting [3] is: genetic background: cdc34-1, temperature: 37 C.
Setting [4] is: genetic background: cdc53-1, temperature: 37 C.
Where [5] appears, read: genetic background: das1 deletion, temperature: 30 C.
The mark [6] stands for this setting: genetic background: das1 deletion, temperature: 37 C.
Where [7] appears, read: genetic background: doa10 deletion, temperature: 30 C.
The mark [8] stands for this setting: genetic background: wild type, temperature: 30 C.
Setting [9] is: genetic background: wild type, temperature: 37 C.

± gives the standard deviation of the averaged measurements.
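Also: PSI is a weighted mean of sequencing reads over stability bins, variants kept only with over 10 reads, mCherry proximal and sfGFP distal, peptide attached via GGGS linker.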

Take ALHGTVRNWQRQ: the protein stability index in the data set on Saccharomyces cerevisiae [1] (setting [3]) stood at 0.673 ± 0.066; in the data set with Saccharomyces cerevisiae [1] (setting [4]) it was 0.701 ± 0.059; with Saccharomyces cerevisiae [1] (setting [5]), 0.63 ± 0.035; in the data set with Saccharomyces cerevisiae [1] (setting [6]) it was 0.696 ± 0.011; with Saccharomyces cerevisiae [1] (setting [7]), 0.191 ± 0.016; in the data set on Saccharomyces cerevisiae [1] (setting [8]) it was 0.245 ± 0.0071. Besides, the protein stability index came to 0.535 ± 0.04 in the data set on Saccharomyces cerevisiae [1] (setting [9]) and 0.39 ± 0.015 in the data set on Saccharomyces cerevisiae [2].
For APLPPPPASVPP, the protein stability index was determined as 0.656 ± 0.076 in the data set on Saccharomyces cerevisiae [1] (setting [3]); 0.7014 ± 0.0041 with Saccharomyces cerevisiae [1] (setting [4]); 0.672 ± 0.015 with Saccharomyces cerevisiae [1] (setting [5]); 0.711 ± 0.014 in the data set with Saccharomyces cerevisiae [1] (setting [6]); 0.65 ± 0.014 in the data set on Saccharomyces cerevisiae [1] (setting [7]); 0.649 ± 0.03 in the data set with Saccharomyces cerevisiae [1] (setting [8]). In the data set on Saccharomyces cerevisiae [1] (setting [9]), this sequence came in with a protein stability index of 0.691 ± 0.0089.
In the case of APPHPPPATFLS, the protein stability index with Saccharomyces cerevisiae [1] (setting [3]) was determined as 0.643 ± 0.014; in the data set with Saccharomyces cerevisiae [1] (setting [4]) it was 0.732 ± 0.022; with Saccharomyces cerevisiae [1] (setting [5]) it was 0.685 ± 0.019; in the data set on Saccharomyces cerevisiae [1] (setting [6]), 0.721 ± 0.0092; in the data set on Saccharomyces cerevisiae [1] (setting [7]), 0.326 ± 0.032; in the data set on Saccharomyces cerevisiae [1] (setting [8]), 0.357 ± 0.026. In the data set with Saccharomyces cerevisiae [1] (setting [9]), the protein stability index was determined as 0.574 ± 0.012.
For DFWCIIVIFLFR, the protein stability index with Saccharomyces cerevisiae [1] (setting [3]) is 0.221 ± 0.004; in the data set with Saccharomyces cerevisiae [1] (setting [4]), 0.348 ± 0.027; in the data set on Saccharomyces cerevisiae [1] (setting [5]), 0.248 ± 0.015; with Saccharomyces cerevisiae [1] (setting [6]), 0.393 ± 0.015; in the data set on Saccharomyces cerevisiae [1] (setting [7]), 0.225 ± 0.0077; with Saccharomyces cerevisiae [1] (setting [8]), 0.251 ± 0.031. Moreover, the protein stability index in the data set on Saccharomyces cerevisiae [1] (setting [9]) stood at 0.34 ± 0.0045.
In the case of EKKKKKRKNKIK, the protein stability index came to 0.691 ± 0.0098 in the data set with Saccharomyces cerevisiae [1] (setting [3]); 0.727 ± 0.037 in the data set with Saccharomyces cerevisiae [1] (setting [4]); 0.655 ± 0.024 in the data set on Saccharomyces cerevisiae [1] (setting [5]); 0.7221 ± 0.0038 in the data set on Saccharomyces cerevisiae [1] (setting [6]); 0.649 ± 0.016 in the data set with Saccharomyces cerevisiae [1] (setting [7]); 0.652 ± 0.025 in the data set on Saccharomyces cerevisiae [1] (setting [8]). For the same sequence, the protein stability index in the data set on Saccharomyces cerevisiae [1] (setting [9]) was found to be 0.661 ± 0.028.
Turning to FHSALIAIAAYV, the protein stability index with Saccharomyces cerevisiae [1] (setting [3]) turned out to be 0.135 ± 0.012; in the data set on Saccharomyces cerevisiae [1] (setting [4]) it was 0.128 ± 0.032; in the data set on Saccharomyces cerevisiae [1] (setting [5]), 0.201 ± 0.029; with Saccharomyces cerevisiae [1] (setting [6]) it was 0.2396 ± 0.00086; with Saccharomyces cerevisiae [1] (setting [7]), 0.162 ± 0.024; in the data set with Saccharomyces cerevisiae [1] (setting [8]), 0.202 ± 0.016. Besides, the protein stability index with Saccharomyces cerevisiae [1] (setting [9]) amounted to 0.217 ± 0.0052.
Turning to LSLLILFVLLSF, the protein stability index in the data set with Saccharomyces cerevisiae [1] (setting [3]) is 0.444 ± 0.014; in the data set on Saccharomyces cerevisiae [1] (setting [4]), 0.476 ± 0.016; in the data set on Saccharomyces cerevisiae [1] (setting [5]), 0.355 ± 0.042; in the data set on Saccharomyces cerevisiae [1] (setting [6]) it was 0.449 ± 0.023; in the data set with Saccharomyces cerevisiae [1] (setting [7]) it was 0.3914 ± 0.00083; in the data set with Saccharomyces cerevisiae [1] (setting [8]) it was 0.385 ± 0.024. The sequence further yielded a protein stability index with Saccharomyces cerevisiae [1] (setting [9]) of 0.463 ± 0.039.
On to LVGYSVFVLFFS, for which the protein stability index amounted to 0.282 ± 0.015 in the data set with Saccharomyces cerevisiae [1] (setting [3]); 0.5056 ± 0.0012 in the data set with Saccharomyces cerevisiae [1] (setting [4]); 0.253 ± 0.034 with Saccharomyces cerevisiae [1] (setting [5]); 0.498 ± 0.012 in the data set with Saccharomyces cerevisiae [1] (setting [6]); 0.21 ± 0.0089 with Saccharomyces cerevisiae [1] (setting [7]); 0.226 ± 0.048 in the data set on Saccharomyces cerevisiae [1] (setting [8]). This sequence also returned a protein stability index with Saccharomyces cerevisiae [1] (setting [9]) of 0.426 ± 0.037.
As to PLPSRLRRFVPV, the protein stability index with Saccharomyces cerevisiae [1] (setting [3]) worked out at 0.656 ± 0.05; with Saccharomyces cerevisiae [1] (setting [4]), 0.701 ± 0.0078; in the data set on Saccharomyces cerevisiae [1] (setting [5]), 0.595 ± 0.0072; in the data set on Saccharomyces cerevisiae [1] (setting [6]), 0.7072 ± 0.0018; in the data set on Saccharomyces cerevisiae [1] (setting [7]), 0.613 ± 0.018; in the data set with Saccharomyces cerevisiae [1] (setting [8]) it was 0.62 ± 0.014. In the data set on Saccharomyces cerevisiae [1] (setting [9]), this sequence returned a protein stability index of 0.6801 ± 0.0039.
PPCSLLPPPPAP: the protein stability index in the data set with Saccharomyces cerevisiae [1] (setting [3]) is 0.624 ± 0.049; with Saccharomyces cerevisiae [1] (setting [4]), 0.7196 ± 0.0057; in the data set on Saccharomyces cerevisiae [1] (setting [5]), 0.682 ± 0.043; with Saccharomyces cerevisiae [1] (setting [6]), 0.713 ± 0.0088; in the data set on Saccharomyces cerevisiae [1] (setting [7]), 0.715 ± 0.023; in the data set with Saccharomyces cerevisiae [1] (setting [8]), 0.674 ± 0.056. The sequence further yielded a protein stability index in the data set with Saccharomyces cerevisiae [1] (setting [9]) of 0.687 ± 0.024.
For the sequence RGGVRGVRSGRG, the protein stability index in the data set with Saccharomyces cerevisiae [1] (setting [3]) worked out at 0.588 ± 0.016; with Saccharomyces cerevisiae [1] (setting [4]), 0.716 ± 0.047; in the data set on Saccharomyces cerevisiae [1] (setting [5]), 0.478 ± 0.014; in the data set with Saccharomyces cerevisiae [1] (setting [6]), 0.565 ± 0.026; in the data set on Saccharomyces cerevisiae [1] (setting [7]) it was 0.4741 ± 0.0046; in the data set with Saccharomyces cerevisiae [1] (setting [8]), 0.485 ± 0.02. The same sequence had a protein stability index in the data set with Saccharomyces cerevisiae [1] (setting [9]) of 0.631 ± 0.045.

The values above are taken from the supplement of paper PMC10724198.
